Blank lines part the entries; values can stand above or below the binder they belong to.
Columns and labels:
[1] = target: T1, biotinylated human TROP2 antigen (human, UniProt P09758 27-274, C-terminal Avi tag sequence biotinylated); experiment: ELISA, immobilised biotinylated human TROP2, anti-FLAG-HRP, chemiluminescence; without MMP1
T1 construct: extracellular domain; Extracellular domain purified in house
T1 sequence (looked up): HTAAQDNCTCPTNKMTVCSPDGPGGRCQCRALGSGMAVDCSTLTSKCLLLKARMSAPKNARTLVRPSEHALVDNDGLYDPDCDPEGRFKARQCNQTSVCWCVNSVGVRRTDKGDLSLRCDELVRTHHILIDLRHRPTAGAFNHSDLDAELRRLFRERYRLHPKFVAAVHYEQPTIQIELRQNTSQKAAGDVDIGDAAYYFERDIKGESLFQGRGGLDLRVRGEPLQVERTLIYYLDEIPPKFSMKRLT
Description: (§1) NeutrAvidin (Thermo Fisher Scientific) diluted to 1 μg/ml with PBS was added at 50 μl/well to a 96-well Maxi-sorp plate (Black, Nunc) and immobilized at 4° C. overnight. The plate was washed with PBS containing 0.05% (w/v) Tween-20 (BioRad) (ELISA buffer) and then blocked with Blocker Casein (Thermo Fisher Scientific). The plate was washed with ELISA buffer, the biotinylated human TROP2 antigen (Accession Number: P09758; the extracellular domain was purified by the method known to a person skilled in the art and the C-terminal Avi tag sequence was then biotinylated) diluted to 1 μg/ml with PBS was added at 50 μl/well, and the resultant was then agitated for 30 minutes at room temperature. […] The plate was washed with ELISA buffer, the SuperSignal Pico ELISA chemiluminescent substrate (Thermo Fisher Scientific) was added, and chemiluminescence 10 minutes thereafter was then assayed using a plate reader.
(§2) The resultant was then added to the plate comprising the human TROP2 antigen immobilized thereon at 50 μl/well. The bound scFv was detected using the HRP-labeled anti-FLAG antibody (Sigma-Aldrich) diluted to 5,000-fold with ELISA buffer.

[2] = target: T1, biotinylated human TROP2 antigen; experiment: ELISA, immobilised biotinylated human TROP2, anti-FLAG-HRP, chemiluminescence; scFv pre-incubated with MMP1
Description: as §1, §2

[3] = target: T2, biotinylated human GPRC5D amino terminal peptide (human, K(Biotin) at the C-terminus; C-terminal amide (NH2)); experiment: ELISA, immobilised biotinylated human GPRC5D amino terminal peptide, anti-human IgG-HRP, chemiluminescence
T2 construct: The last K carries the biotin and is an added residue as printed; also called human GPRC5D antigen; humanGPRC5D antigen
T2 peptide: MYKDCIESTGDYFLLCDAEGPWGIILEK
Description: NeutrAvidin (Thermo Fisher Scientific) diluted to 1 μg/ml with PBS was added at 50 μl/well to a 96-well Maxi-sorp plate (Black, Nunc) and immobilized at 4° C. overnight. The plate was washed with PBS (ELISA buffer) containing 0.05 (w/v) % Tween-20 (BioRad) and then blocked with Blocker Casein (Thermo Fisher Scientific). The plate was washed with ELISA buffer, the biotinylated human GPRC5D amino terminal peptide ([sequence]-K(Biotin)-NH₂ (Peptide Institute, Inc.)) diluted to 1 μg/ml with PBS was added at 50 μl/well, and the resultant was agitated for 30 minutes at room temperature. The plate was washed with ELISA buffer, the MMP-buffered antibody was added at 50 μl/well, and the resultant was then agitated for 30 minutes at room temperature. The plate was washed with ELISA buffer, 50 μl of the horseradish peroxidase (HRP)-labeled anti-human IgG antibody (Jackson Immuno Research Laboratories) diluted to 2,500-fold with ELISA buffer was added, and the resultant was then agitated for 30 minutes at room temperature. The plate was washed with ELISA buffer, the SuperSignal Pico ELISA chemiluminescent substrate (Thermo Fisher Scientific) was added, and chemiluminescence 10 minutes thereafter was then assayed using a plate reader.

[4] = target: T1, biotinylated human TROP2 antigen; experiment: ELISA, immobilised biotinylated human TROP2, anti-FLAG-HRP, chemiluminescence; scFv pre-incubated with MMP1; remark: listed apart in the source
Description: as §1, §2

[5] = target: T1, biotinylated human TROP2 antigen; experiment: ELISA, immobilised biotinylated human TROP2, anti-FLAG-HRP, chemiluminescence; without MMP1; remark: listed apart in the source
Description: as §1, §2

[6] = target: T1, biotinylated human TROP2 antigen; experiment: ELISA, immobilised biotinylated human TROP2, anti-human IgG-HRP, chemiluminescence; antibody pre-incubated with MMP1
Description: (§3) NeutrAvidin (Thermo Fisher Scientific) diluted to 1 μg/ml with PBS was added at 50 μl/well to a 96-well Maxi-sorp plate (Black, Nunc) and immobilized at 4° C. overnight. The plate was washed with PBS containing 0.05% (w/v) Tween-20 (BioRad) (ELISA buffer) and then blocked with Blocker Casein (Thermo Fisher Scientific). The plate was washed with ELISA buffer, the biotinylated human TROP2 antigen (Accession Number: P09758; the extracellular domain was purified by the method known to a person skilled in the art and the C-terminal Avi tag sequence was then biotinylated) diluted to 1 μg/ml with PBS was added at 50 μl/well, and the resultant was then agitated for 30 minutes at room temperature. […] The plate was washed with ELISA buffer, 50 μl of the horseradish peroxidase (HRP)-labeled anti-human IgG antibody (Jackson Immuno Research Laboratories) diluted to 2,500-fold with ELISA buffer was added, and the resultant was then agitated for 30 minutes at room temperature. The plate was washed with ELISA buffer, the SuperSignal Pico ELISA chemiluminescent substrate (Thermo Fisher Scientific) was added, and chemiluminescence 10 minutes thereafter was then assayed using a plate reader.

[7] = target: T1, biotinylated human TROP2 antigen; experiment: ELISA, immobilised biotinylated human TROP2, anti-human IgG-HRP, chemiluminescence
Description: as §3

[8] = target: T1, biotinylated human TROP2 antigen; experiment: ELISA, immobilised biotinylated human TROP2, anti-human IgG-HRP, chemiluminescence; without MMP1
Description: as §3

[9] = target: T1, biotinylated human TROP2 antigen; experiment: ELISA, immobilised biotinylated human TROP2, anti-human IgG-HRP, chemiluminescence; antibody pre-incubated with uPA
Description: as §3

[10] = target: T1, biotinylated human TROP2 antigen; experiment: ELISA, immobilised biotinylated human TROP2, anti-human IgG-HRP, chemiluminescence; without uPA
Description: as §3

[11] = target: T1, biotinylated human TROP2 antigen; experiment: ELISA on human TROP2, antibody with or without uPA cleavage
Description: as §3

[12] = target: T1, biotinylated human TROP2 antigen; experiment: ELISA, immobilised biotinylated human TROP2, anti-human IgG-HRP, chemiluminescence; antibody pre-incubated with MMP1; remark: listed apart in the source
Description: as §3

[13] = target: T1, biotinylated human TROP2 antigen; experiment: ELISA on human TROP2, antibody with or without MMP1 cleavage
Description: as §3

[14] = target: T1, biotinylated human TROP2 antigen; experiment: ELISA, immobilised biotinylated human TROP2, anti-human IgG-HRP, chemiluminescence; without MMP1; remark: listed apart in the source
Description: as §3

[15] = target: T1, biotinylated human TROP2 antigen; experiment: ELISA on human TROP2, scFv with or without MMP1 cleavage
Description: as §2
Thereafter, the antibody with the concentration thereof being adjusted with ELISA buffer was added to the wells.

[16] = target: T1, biotinylated human TROP2 antigen; experiment: ELISA, immobilised biotinylated human TROP2, anti-FLAG-HRP, chemiluminescence; scFv pre-incubated with MMP1; remark: listed apart in the source
Description: as §1, §2

[17] = target: T1, biotinylated human TROP2 antigen; experiment: ELISA, immobilised biotinylated human TROP2, anti-FLAG-HRP, chemiluminescence; without MMP1; remark: listed apart in the source
Description: as §1, §2

[18] = target: T1, biotinylated human TROP2 antigen; experiment: ELISA, immobilised biotinylated human TROP2, anti-FLAG-HRP, chemiluminescence; scFv pre-incubated with MMP1; remark: listed apart in the source
Description: as §1, §2

EC50 (read off the curve) [3]: ~0.3 nM
B2: anti-GPRC5D antibody C3022 (antibody, V domains shown)
VH: QVQLVQSGAEVKKPGASVKVSCKASGYTFTGYYMHWVRQAPGQGLEWMGRINPNSGGTNYAQKFQGRVTMTRDTSISTAYMELSGLRSDDTAVYYCASGSVRHPWGQGTLVTVSS
VL: QPVLTQPPSASGTPGQRVTISCSGSRSNIGGNIVSWYQQFPGTAPRLLTYADNQRPSGVPDRFSGSKSGTSASLAISGLQSEDEADYYCAAWDDSLNGVVFGGGTKLTVLG
notes: Known antibody of WO 2018/147245

EC50 (read off the curve) [6]: ~0.5 nM
EC50 (read off the curve) [7]: ~0.6 nM
EC50 (read off the curve) [8]: ~0.5 nM
B4: anti-TROP2 antibody HT1-11 (antibody)
heavy: not shown
light: DIQMTQSPSSLSASVGDRVTITCKASQDVSTAVAWYQQKPGKAPKLLIYSASYRYTGVPSRFSGSGSGTDFTLTISSLQPEDFAVYYCQQHYITPLTFGQGTKLEIKRTVAAPSVFIFPPSDEQLKSGTASVVCLLNNFYPREAKVQWKVDNALQSGNSQESVTEQDSKDSTYSLSSTLTLSKADYEKHKVYACEVTHQGLSSPVTKSFNRGEC
notes: Known antibody of WO 2015/098099; Entries are called full-length

EC50 (read off the curve) [9]: ~1 nM
EC50 (read off the curve) [10]: ~90 nM
EC50 ratio of binding (under the condition without the addition of uPA/under the condition with the addition of uPA) [11]: 83
B5: anti-TROP2 masked antibody MHT1009 (antibody)
heavy: not shown
light: B4 light
notes: IgG-type

EC50 (read off the curve) [12]: ~0.3 nM
EC50 ratio of binding (under the condition without the addition of MMP1/under the condition with the addition of MMP1) [13]: 104
EC50 (read off the curve) [14]: ~30 nM
B6: anti-TROP2 masked antibody MHT1007 (antibody)
heavy: not shown
light: B4 light
notes: IgG-type; MHT1001 mimotope and MMP cleavable linker fused to the heavy chain

Second part, the binder before the results:

B1: HT1-11-scFv-HL (scFv)
scFv: ADVNSQVQLVQSGAEVKKPGASVKVSCKASGYTFTTAGMQWVRQAPGQGLEWMGWINTHSGVPKYAEDFKGRVTISADTSTSTAYLQLSSLKSEDTAVYYCARSGFGSSYWYFDVWGQGTLVTVSSGGGGSGGGGSGGGGSDIQMTQSPSSLSASVGDRVTITCKASQDVSTAVAWYQQKPGKAPKLLIYSASYRYTGVPSRFSGSGSGTDFTLTISSLQPEDFAVYYCQQHYITPLTFGQGTKLEIKRGAPSGDYKDDDDKGAAAHHHHHH
notes: No mimotope fused; expressed in E. coli, purified on Ni Sepharose; also called scFv-type anti-TROP2 antibody
EC50 (read off the curve) [1]: ~5 nM
EC50 (read off the curve) [2]: ~4 nM

B3: HT1-11-scFv-LH (scFv)
scFv: ADVNSDIQMTQSPSSLSASVGDRVTITCKASQDVSTAVAWYQQKPGKAPKLLIYSASYRYTGVPSRFSGSGSGTDFTLTISSLQPEDFAVYYCQQHYITPLTFGQGTKLEIKRGGGGSGGGGSGGGGSQVQLVQSGAEVKKPGASVKVSCKASGYTFTTAGMQWVRQAPGQGLEWMGWINTHSGVPKYAEDFKGRVTISADTSTSTAYLQLSSLKSEDTAVYYCARSGFGSSYWYFDVWGQGTLVTVSSGAPSGDYKDDDDKGAAAHHHHHH
notes: as for B1
EC50 (read off the curve) [4]: ~3 nM
EC50 (read off the curve) [5]: ~3 nM

B7: MHT1001 (scFv)
scFv: AMGYLALKHPWPGLAENSGSGGGGSVLVPMAMMASGGSDVNSQVQLVQSGAEVKKPGASVKVSCKASGYTFTTAGMQWVRQAPGQGLEWMGWINTHSGVPKYAEDFKGRVTISADTSTSTAYLQLSSLKSEDTAVYYCARSGFGSSYWYFDVWGQGTLVTVSSGGGGSGGGGSGGGGSDIQMTQSPSSLSASVGDRVTITCKASQDVSTAVAWYQQKPGKAPKLLIYSASYRYTGVPSRFSGSGSGTDFTLTISSLQPEDFAVYYCQQHYITPLTFGQGTKLEIKRGAPSGDYKDDDDKGAAAHHHHHH
notes: also called positive clone MHT1001
EC50 ratio of binding (under the condition without the addition of MMP1/under the condition with the addition of MMP1) [15]: 7.9
EC50 (read off the curve) [16]: ~8 nM

B8: MHT1002 (scFv)
scFv: AMGYLALKHPWPGLAENSGSGGGGSVLVPMAMMASGGSDVNSDIQMTQSPSSLSASVGDRVTITCKASQDVSTAVAWYQQKPGKAPKLLIYSASYRYTGVPSRFSGSGSGTDFTLTISSLQPEDFAVYYCQQHYITPLTFGQGTKLEIKRGGGGSGGGGSGGGGSQVQLVQSGAEVKKPGASVKVSCKASGYTFTTAGMQWVRQAPGQGLEWMGWINTHSGVPKYAEDFKGRVTISADTSTSTAYLQLSSLKSEDTAVYYCARSGFGSSYWYFDVWGQGTLVTVSSGAPSGDYKDDDDKGAAAHHHHHH
notes: Mimotope peptide, MMP cleavable linker, HT1-11 scFv, FLAG tag, His tag; also called positive clone MHT1002
EC50 (read off the curve) [17]: 10 to 20 nM
EC50 (read off the curve) [18]: ~3 nM
EC50 ratio of binding (under the condition without the addition of MMP1/under the condition with the addition of MMP1) [15]: 4.3

Reference: US20250034274A1 (Daiichi Sankyo, published 2025)
